According to article PMC9537153 (Nature Communications, 2022):
Like-named read-outs stand apart in the source and are kept apart here.

Key:
[1] = biological target: T1, p19, C-terminal 19 kDa fragment of Merozoite Surface Protein 1 (MSP-1), Plasmodium falciparum 3D7 allele, … (Plasmodium falciparum 3D7)
T1 chain: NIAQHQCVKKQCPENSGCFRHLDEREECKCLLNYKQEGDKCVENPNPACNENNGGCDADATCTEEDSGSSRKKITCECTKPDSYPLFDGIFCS

[2] = biological target: T2, full-length Merozoite Surface Protein 1 (MSP-1), Plasmodium falciparum 3D7 allele, non-glycosylated, His6 (Plasmodium falciparum 3D7, UniProt Q8I0U8)
[3] = biological target: T2, full-length Merozoite Surface Protein 1 …; assay: ELISA; conditions: both partners purified
[4] = biological target: T3, biotinylated p19 (3D7 allele, non-glycosylated) with C-terminal Avi-tag and His6 tag (Plasmodium falciparum 3D7, enzymatically biotinylated on a C-terminal AviTag); assay: BLI; conditions: both partners purified
T3 chain: T1 chain

T2 sequence (Q8I0U8 whole entry, looked up): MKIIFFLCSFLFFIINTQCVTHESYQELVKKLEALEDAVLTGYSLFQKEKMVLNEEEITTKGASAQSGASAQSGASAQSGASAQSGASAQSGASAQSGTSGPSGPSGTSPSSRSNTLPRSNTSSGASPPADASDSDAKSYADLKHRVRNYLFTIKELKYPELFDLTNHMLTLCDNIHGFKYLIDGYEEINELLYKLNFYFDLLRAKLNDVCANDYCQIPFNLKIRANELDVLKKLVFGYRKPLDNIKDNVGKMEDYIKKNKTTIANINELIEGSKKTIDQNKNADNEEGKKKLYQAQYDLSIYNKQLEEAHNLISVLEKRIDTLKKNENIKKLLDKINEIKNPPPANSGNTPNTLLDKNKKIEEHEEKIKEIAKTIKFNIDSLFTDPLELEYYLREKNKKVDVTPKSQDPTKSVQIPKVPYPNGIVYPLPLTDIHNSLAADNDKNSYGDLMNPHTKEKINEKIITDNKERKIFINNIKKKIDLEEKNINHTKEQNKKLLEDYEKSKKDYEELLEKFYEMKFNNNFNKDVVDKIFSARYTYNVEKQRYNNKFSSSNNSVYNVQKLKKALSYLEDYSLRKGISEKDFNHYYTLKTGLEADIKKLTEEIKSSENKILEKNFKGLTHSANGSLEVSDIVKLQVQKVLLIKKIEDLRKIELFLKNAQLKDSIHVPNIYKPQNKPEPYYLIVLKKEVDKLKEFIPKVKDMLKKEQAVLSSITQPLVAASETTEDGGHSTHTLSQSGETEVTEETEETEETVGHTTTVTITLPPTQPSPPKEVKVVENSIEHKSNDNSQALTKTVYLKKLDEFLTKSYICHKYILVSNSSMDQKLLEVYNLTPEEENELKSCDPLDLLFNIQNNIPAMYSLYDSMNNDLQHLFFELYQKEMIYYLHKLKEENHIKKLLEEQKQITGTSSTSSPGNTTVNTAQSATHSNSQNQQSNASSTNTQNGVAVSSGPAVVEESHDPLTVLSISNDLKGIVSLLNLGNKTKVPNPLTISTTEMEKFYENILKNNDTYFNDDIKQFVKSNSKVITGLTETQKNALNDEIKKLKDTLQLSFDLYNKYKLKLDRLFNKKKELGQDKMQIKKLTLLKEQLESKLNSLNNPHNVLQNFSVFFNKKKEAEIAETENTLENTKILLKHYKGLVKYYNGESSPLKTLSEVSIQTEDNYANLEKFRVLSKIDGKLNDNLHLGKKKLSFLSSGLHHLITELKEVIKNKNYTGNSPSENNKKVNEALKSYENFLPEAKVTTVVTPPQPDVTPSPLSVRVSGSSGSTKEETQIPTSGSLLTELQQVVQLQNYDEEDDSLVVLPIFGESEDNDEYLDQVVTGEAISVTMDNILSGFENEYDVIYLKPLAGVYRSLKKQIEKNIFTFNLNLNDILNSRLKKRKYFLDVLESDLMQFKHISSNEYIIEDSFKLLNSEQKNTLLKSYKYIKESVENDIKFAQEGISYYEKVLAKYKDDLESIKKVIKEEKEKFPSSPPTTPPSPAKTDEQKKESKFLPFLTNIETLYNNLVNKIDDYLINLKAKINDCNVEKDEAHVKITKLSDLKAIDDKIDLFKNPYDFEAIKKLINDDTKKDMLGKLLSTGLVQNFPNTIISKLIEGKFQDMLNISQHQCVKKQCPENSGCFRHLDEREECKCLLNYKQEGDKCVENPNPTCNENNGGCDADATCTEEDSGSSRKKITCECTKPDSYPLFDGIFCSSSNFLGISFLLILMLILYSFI

B1: 42C5 (antibody, V domains shown)
VH: EVQLVESGGGVVQPGGSLRLSCAASGFIFSSYSMHWVRQAPGKGLEWVAFIRYDGNRKYYGDSVKGRFTVSRDNSMDTLSLHMTNLRPEDTAIYYCARVGWTWVSEPVDVWGEGATVTVAS
VL: QSVLTQPPSASGTPGQGVSISCSGSRSNVGTNYVYWYQQVPGTAPKLLILRNTQRPSGVPDRFSGSKSGSSASLAISGLRSADEGDYYCAVWDSNLDHVVFGGGTKVTVL
In the case of B1, the Kd [1] is reported as 3.29 nM and the binding result [2] is reported as “binds”.

B2: 42D7 (antibody, V domains shown)
VH: EVQMVESGGGVVRPGGSLGLSCTASGFTFSNFGIYWVRQAPGKGLEWVAFTRYDGRNKYYGDSVKGRFTISRDNSKNTLYLQMNRLRHEDTGTYYCAKVGATWASEPMDVWGKGTTVMVSS
VL: QSVLTQPPSVSGTPGQRVTIYCSGSTSNVGTNFVYWYKQLPGAAPKLLISRNTQRPSGVPDRFSGSKSGTSAFLAISGLRSEDEASYHCSVWDGDLTGLVFGGGTKLTVL
With B2 the Kd [1] was 6.2 nM and the binding result [2] was “binds”.

B3: 42A9 (antibody, V domains shown)
VH: QVQVVESGGGVVQPGGSLTLSCRASGFIFSDYGLHWVRQPPGKGLEWVALINYDGRNKYYADSVRGRFTISRDNSKNTLSLQMSSLRSGDTAIYFCARVGAKWASEPMDVWGRGTTVTVSS
VL: QSVLTQPPSASGTPGQRVTISCSGSTSNVGTNFVYWYHQRPGTAPKLLIYRNDERPSGVPDRISGSKSGASASLAISGLRSEDEGDYHCSAWDGSLRRLVFGGGTKLTVL
For B3, the Kd [1] was 0.73 nM and the binding result [2] was “binds”.

B4: 42C11 recombinant human IgG1 (hmAb 42C11) (antibody, V domains shown)
VH: QVQLVESGGGVVQPGGSLRLSCAASGFIFSSYSMHWVRQAPGKGLEWVAFIRYDGRREYYADSVKGRFTVSRDNIMNTVFLQMNNLRPEDTATYYCAKVGWTWVSEPADVWGEGATVTVSS
VL: QSVLTQPPSTSGTPGQGVTISCSGSRSNVGTNYVYWYQQIPGRAPKLLINRNTQRPSGVPVRFSGSKSGTTAFLAITGLRSEDEADYFCAVWDGDLSGVIFGGGTKVTVL
notes: IgG1; source: Expi293F cells, heavy- and light-chain plasmids co-transfected 1:1, purified (Protein A agarose, SEC)
B4: binds [3].

B5: 42C11 Fab (naturally acquired human monoclonal antibody to p19) (Fab, V domains shown)
VH: B4 VH
VL: B4 VL
notes: source: Expi293F cells, transfected, purified from supernatant (Ni Sepharose Excel, SEC)
Binder B5 has a Kd [4] of 1.84 nM, a koff [4] of 0.00047 s⁻¹ and a kon [4] of 255000 M⁻¹ s⁻¹.
